Target: the molecule itself
Test: SEC-MALS

B1: Exo-β-N-acetylmuramidase NamZ of Bacillus subtilis 168, recombinant, C-terminal His6-tag fusion protein (enzyme)
chain: SPDSKNQTAKKPKVQTGIDTLLPDYKKQLKGKRIGLITNPAGVNTSLKSSVDILYENPDIKLTALFGPEHGVRGDAQAGDEVGSYIDEKTGVPVYSLYGKTKKPTPEMLKNVDILMFDIQDVGTRFYTYIYTMAYAMEAAKENGIPFMVLDRPNPQGGNHIEGPILEPEYASFVGLYPIPLKHGMTIGELASLFNKEFSIDADLTVVKMKHWKRKMDFDDTRLPFVLPSPNMPTVESTFVYPATGLIEGTNISEGRGTTKPFELIGAPFIKSTELEETLNSLHLPGVTFRAASFTPTFSKHQGTLCHGVQLYVTDRDKFEAVKTGLSVIKTIHDLYPEDFEFLSTGSFDKLAGNGWIRTKIENGTSVENIINSYEKTLQQFSKTRKKYLIY
**Q.** With B1 as the protein, how does the “stoichiometry N” value read?
**A.** The value was 2.

Reference: article doi:10.1101/2021.01.10.425899 (bioRxiv, 2021)
